Test results taken from US20090208519A1.

Molecular target: native Neospora caninum cyclophilin (NcCyP) in whole-cell tachyzoite lysate (NcAg) (Neospora caninum) (UniProt P84343)
Assay: cell-based or functional assay

Sequence of UniProt P84343 (P84343 18-178 limits assumed): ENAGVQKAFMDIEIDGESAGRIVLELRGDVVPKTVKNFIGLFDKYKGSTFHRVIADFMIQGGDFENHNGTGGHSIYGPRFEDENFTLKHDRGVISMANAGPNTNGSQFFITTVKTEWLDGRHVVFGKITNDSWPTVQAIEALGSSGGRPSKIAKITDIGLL

How did the NcAg-stimulated IFNγ production in mouse splenocytes turn out when cyclosporin A (CsA) (peptide) was run?
Its NcAg-stimulated IFNγ production in mouse splenocytes is 10 to 100 nM.
